Experimental data: IntAct's records for PubMed 21276203

B1: Serine/threonine-protein kinase OXI1 (Arabidopsis thaliana (Mouse-ear cress)), Q9LSF1 (parent)
chain: MLEGDEKQSRALDFNRLEVLSLLGRGAKGVVFLVRDDDAKLLALKVILKEAIEKKKKGRESEDDEYKRVSFEQGVLSRFDHPLFPSLHGVLATDKVIGYAIDYCPGQNLNSLRKMQSESMFSDEIIRFYAAELVLALDYLHNQGIVYRDLKPDNVMIQENGHLMLIDFDLSTNLAPRTPQPSPSLSKPSPTMKRKKRLFRFTSFCNSGISPQESISVHSSSTLAVSDSSGEKSNSFVGTEEYVAPEVISGDGHDFAVDWWSLGVVLYEMLYGATPFRGSNRKETFYRILSKPPNLTGETTSLRDLIRRLLEKDPSRRINVEEIKGHDFFRGVDWEKVILVSRPPYIPAPDDGGDKGTDVNTKMDVENIVQEIFAARQEREKQSGDNNKNANMKIKDNTSGEWVKGLNNNHDLESDNNFLVF
partner: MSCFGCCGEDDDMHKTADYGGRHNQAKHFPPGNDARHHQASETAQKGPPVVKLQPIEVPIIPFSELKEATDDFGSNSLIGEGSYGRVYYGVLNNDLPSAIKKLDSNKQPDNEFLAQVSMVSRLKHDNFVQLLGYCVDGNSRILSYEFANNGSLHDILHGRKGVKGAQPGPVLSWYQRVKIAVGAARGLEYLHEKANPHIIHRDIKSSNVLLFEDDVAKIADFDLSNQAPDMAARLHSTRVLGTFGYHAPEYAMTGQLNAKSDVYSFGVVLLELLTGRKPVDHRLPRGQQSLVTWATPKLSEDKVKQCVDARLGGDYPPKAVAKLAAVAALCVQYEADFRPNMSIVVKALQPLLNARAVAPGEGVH

Variants of: B1
Conditions: with y2706, O80719

effect of a mutation on the interaction | Variant
disrupting interaction | MLEGDEKQSRALDFNRLEVLSLLGRGAKGVVFLVRDDDAKLLALRVILKEAIEKKKKGRESEDDEYKRVSFEQGVLSRFDHPLFPSLHGVLATDKVIGYAIDYCPGQNLNSLRKMQSESMFSDEIIRFYAAELVLALDYLHNQGIVYRDLKPDNVMIQENGHLMLIDFDLSTNLAPRTPQPSPSLSKPSPTMKRKKRLFRFTSFCNSGISPQESISVHSSSTLAVSDSSGEKSNSFVGTEEYVAPEVISGDGHDFAVDWWSLGVVLYEMLYGATPFRGSNRKETFYRILSKPPNLTGETTSLRDLIRRLLEKDPSRRINVEEIKGHDFFRGVDWEKVILVSRPPYIPAPDDGGDKGTDVNTKMDVENIVQEIFAARQEREKQSGDNNKNANMKIKDNTSGEWVKGLNNNHDLESDNNFLVF [K45R]
